Here are results for 3 molecules from article PMC4515812.

The series concerns the target Sp1 (recombinant, Sigma-Aldrich SRP2030) (UniProt P08047 1-785). In words: EMSA. On the technique in general: In EMSA bound probe runs differently from free probe, usually more slowly.

Sp1 (recombinant, Sigma-Aldrich SRP2030), sequence (P08047 whole entry): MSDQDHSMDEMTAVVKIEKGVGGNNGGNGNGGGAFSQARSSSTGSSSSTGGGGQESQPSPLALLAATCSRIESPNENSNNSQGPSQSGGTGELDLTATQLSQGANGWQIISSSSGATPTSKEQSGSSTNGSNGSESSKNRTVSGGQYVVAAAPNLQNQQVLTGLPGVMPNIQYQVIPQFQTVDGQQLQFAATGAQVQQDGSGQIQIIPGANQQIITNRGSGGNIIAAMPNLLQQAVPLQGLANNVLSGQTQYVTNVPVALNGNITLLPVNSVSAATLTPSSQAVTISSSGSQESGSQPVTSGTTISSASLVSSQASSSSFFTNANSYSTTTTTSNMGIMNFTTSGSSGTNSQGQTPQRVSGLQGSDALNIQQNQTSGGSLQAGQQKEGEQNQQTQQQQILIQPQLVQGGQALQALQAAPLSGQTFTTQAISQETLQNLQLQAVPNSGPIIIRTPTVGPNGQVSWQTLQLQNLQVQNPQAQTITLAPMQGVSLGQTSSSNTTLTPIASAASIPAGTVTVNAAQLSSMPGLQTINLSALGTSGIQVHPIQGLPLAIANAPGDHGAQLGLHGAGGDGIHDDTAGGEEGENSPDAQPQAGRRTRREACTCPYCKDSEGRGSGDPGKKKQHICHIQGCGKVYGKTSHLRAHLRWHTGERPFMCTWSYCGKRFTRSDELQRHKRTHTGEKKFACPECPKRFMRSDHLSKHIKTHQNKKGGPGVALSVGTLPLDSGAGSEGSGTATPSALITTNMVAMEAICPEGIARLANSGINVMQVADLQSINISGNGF

B1: Sp1 site -403/-382 probe (Sp1_EMSA2) (dsDNA)
DNA 1: CGGGGCCCCGCCCGGGCCAGCC
DNA 2: GGCTGGCCCGGGCGGGGCCCCG
On to B1, for which the binding result is reported as “binds”.

B2: Sp1 site -336/-315 probe (Sp1_EMSA3) (dsDNA)
DNA 1: GGGGGCCTCGCCCCTTTGGGGC
DNA 2: GCCCCAAAGGGGCGAGGCCCCC
As to B2, the binding result was “binds”.

B3: Sp1 consensus probe (Sp1_EMSA1) (dsDNA)
DNA 1: ATTCGATCGGGGCGGGGCGAGC
DNA 2: GCTCGCCCCGCCCCGATCGAAT
With B3, the binding result was “binds”.
